Laboratory results as given in patent US7723070B2, “Overexpression of aminoacyl-tRNA synthetases for efficient production of engineered proteins containing amino acid analogues” (California Institute of Technology, priority 2000, dated 2010).

System: B834(DE3) or CAG18491 hosts with pQE15/pREP4 or pQE15-MRS/pREP4
Assay: Translational activity: mDHFR synthesis, statements covering several bacterial hosts (with pQE15 or pQE15-MRS)
Assay type: cell-based, E. coli
Details: each of CAG18491/pQE15/pREP4 and CAG18491/pQE15-MRS/pREP4
Description: Methionine analogues were synthesized via alkylation of diethylacetamidomalonate, as previously described (As described in Example I, infra; J. C. M. van Hest, D. A. Tirrell, FEBS Lett. 1998, 428, 68-70). Cultures of B834(DE3)/pQE15-MRS/pREP4 or B834(DE3)/pQE15/pREP4 or CAG18491/pQE15-MRS/pREP4 or CAG18491/pQE15/pREP4 in M9AA media were grown to an optical density of 0.90, and the cells were sedimented by centrifugation. The M9AA medium was prepared by supplementing sterile M9 medium with […] of each of the amino acids, 1 mM MgSO4, 0.2 wt % glucose, 1 mg/ml thiamine chloride, and […] calcium chloride. The antibiotics ampicillin and kanamycin were added at concentrations of 200 mg/l and 35 mg/l, respectively.
Cells were washed three times with M9 salts and resuspended to an optical density of 0.90 in M9 test media containing 19 amino acids plus 1) neither methionine nor analogue (negative control); 2) methionine (60 mg/liter, positive control); or 3) an analogue of interest (60 mg/liter). To test the effect of increasing the level of supplementation of the analogues, a set of experiments was also conducted in which the medium was supplemented with 500 mg/liter of methionine or the amino acid analogue. Expression of mDHFR was induced by addition of 0.4 mM isopropyl β-D-thiogalactopyranoside (IPTG), and protein synthesis was monitored after 4.5 hours.

B1: mDHFR: mouse dihydrofolate reductase with N-terminal hexahistidine sequence, test protein (protein, UniProt P00375 2-187, looked up)
Dihydrofolate reductase: VRPLNCIVAVSQNMGIGKNGDLPWPPLRNEFKYFQRMTTTSSVEGKQNLVIMGRKTWFSIPEKNRPLKDRINIVLSRELKEPPRGAHFLAKSLDDALRLIEQPELASKVDMVWIVGGSSVYQEAMNQPGHLRLFVTRIMQEFESDTFFPEIDLGKYKLLPEYPGVLSEVQEEKGIKYKFEVYEKKD
modifications: N-terminal His6 tag
yield of mDHFR in M9AA medium: approximately 30 mg
